Target: recombinant PGI protein (pGEX-4T-PGI) (Ganoderma lucidum)
Test: SPR; Biacore T200, NTA sensor chip; PGI immobilised, TLP2 as analyte at 0-400 µM (legend: 0-400 nM); 50 mM HEPES pH 7.5, 150 mM NaCl, 0.1% Tween 20

Question: With “recombinant TLP2 protein (pColdI-TLP2) (natural protein)” as the substance, how does the Kd read?
Answer: Its Kd is 2210 nM.

— PMC10715077
